Target: T1, BnaA3.ABF4 (Brassica napus, UniProt X2C209 1-395)
T1 sequence: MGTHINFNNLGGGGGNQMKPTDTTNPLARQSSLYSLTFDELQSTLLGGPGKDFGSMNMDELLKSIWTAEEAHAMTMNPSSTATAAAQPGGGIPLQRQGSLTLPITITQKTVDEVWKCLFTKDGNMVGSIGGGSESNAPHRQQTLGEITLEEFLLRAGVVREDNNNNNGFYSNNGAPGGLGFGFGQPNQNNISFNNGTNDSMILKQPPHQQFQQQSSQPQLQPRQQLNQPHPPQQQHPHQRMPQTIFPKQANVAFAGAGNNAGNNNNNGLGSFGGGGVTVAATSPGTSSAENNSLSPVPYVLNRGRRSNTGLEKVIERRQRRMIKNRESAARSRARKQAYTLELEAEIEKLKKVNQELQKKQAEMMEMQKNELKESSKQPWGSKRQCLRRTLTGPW
Test: EMSA; not given in the material
Conditions: protein: recombinant; tags: GST (N-term, pGEX-4T-1); chain copies: 2; label: biotin

B1: BnaA9.NF-YA7 promoter ABRE probe (dsDNA)
DNA 1: ATCTGCCCGTAATCTGCTACGTGCAATCTAAACGCTT
DNA 2: AAGCGTTTAGATTGCACGTAGCAGATTACGGGCAGAT
  binding result: binds

— article PMC10920887, “Natural variation in BnaA9.NF-YA7 contributes to drought tolerance in Brassica napus L”
